The source of these data is patent US20200113997A1 (published 2020).

The experiment concerns the target CH848 Env trimer expressed on the cell surface of CHO cells (HIV-1 (clade C, individual CH848, …)). Description: flow cytometry on CHO cells expressing CH848 Env.

B1: DH270.IA4 (antibody, V domains shown)
VH: QVQLVQSGAEVKKPGASVKVSCKASGYTFTDYYIHWVRQAPGQGLEWMGWINPNTGRTNYAQKFQGRVTMTRDTSISTAYMELSRLRSDDTAVYYCARGGWIGLYYDSSGYPNFDYWGQGTLVTVSS
VL: QSALTQPASVSGSPGQSITISCTGTSYDVGSYNLVSWYQQHPGKAPKLMIYEVSKRPSGVSNRFSGSKSGNTASLTISGLQAEDEADYYCCSYAGSSTVIFGGGTKLTVL
notes: also called DH270_I4
Take B1: the binding result is recorded as “no binding (tested: 5 ug/mL)”.
